The assay has as its target stressed NISTmAb monoclonal antibody. The assay is described as follows: AUC; sedimentation velocity at 50,000 rpm and 20°C; c(s) analysis in SEDFIT, by command line operation and repeated by manual operation on the same data; stressed, partially denatured sample.

We go through 1 substance from PMC10503714.

stressed NISTmAb monoclonal antibody: the percent of signal in higher aggregates (command line analysis) amounted to 51.8%; the percent of signal in higher aggregates (manual analysis) is 51.7%; the percent of signal in the dimer peak was 12.5%; the stoichiometry N (as a rule, the number of molecules, sites or subunits per partner or assembly) amounted to 2.
